Paper PMC10776578, “Epstein-Barr virus-driven B cell lymphoma mediated by a direct LMP1-TRAF6 complex” (Nature Communications, 2024)

B1: unnamed (parent)
chain 1: DHQIRELTAKMETQSMYVSELKRTIRTLEDKVAEIEAQQCNGIYIWKIGNFGMHLKCQEEEKPVVIHSPGFYTGKPGYKLCMRLHLQLPTAQRCANYISLFVHTMQGEYDSHLPWPFQGTIRLTILDQSEAPVRQNHEEIMDAKPELLAFQRPTIPRNPKGFGYVTFMHLEALRQRTFIKDDTLLVRCEVSTRFDMGSLRREGFQPRSTDAGV
chain 2: KKVAKKPTNKAPHPKQEPQEINFPDDLPGSNTAAPVQETLHGCQPVTQEDGKESRISVQERQ
B2: unnamed (parent)
chain 1: B1 chain 1
chain 2: LIWMYYHGQRHSDEHHHDDSLPHPQQATDDSGHESDSNSNEGRHHLLVSGAGDGPPLCSQNLGAPGGGPDNGPQDPDNTDDNGPQDPDNTDDNGPHDPLPQDPDNTDDNGPQDPDNTDDNGPHDPLPHSPSDSAGNDGGPPQLTEEVENKGGDQGPPLMTDGGGGHSHDSGHGGGDPHLPTLLLGSSGSGGDDDDPHGPVQLSYYD

Variants of: B1
Test: AlphaScreen
Details: with partner chain of the complex shown; parent: 100; read off a plot

First: chain 1 DHQIRELTAKMETQSMYVSELKRTIRTLEDKVAEIEAQQCNGIYIWKIGNFGMHLKCQEEEKPVVIHSPGFYTGKPGYKLCMRLHLQLPTAQRCANYISLFVHTMQGEYDSHLPWPFQGTIRLTILDQSEAPVRQNHEEIMDAKPELLAFQRPTIPRNPKGAGYVTFMHLEALRQRTFIKDDTLLVRCEVSTRFDMGSLRREGFQPRSTDAGV [chain 1 F162A]
Second: chain 1 DHQIRELTAKMETQSMYVSELKRTIRTLEDKVAEIEAQQCNGIYIWKIGNFGMHLKCQEEEKPVVIHSPGFYTGKPGYKLCMRLHLQLPTAQRCANYISLFVHTMQGEYDSHLPWPFQGTIRLTILDQSEAPVRQNHEEIMDAKPELLAFQRPTIPRNPAGFGYVTFMHLEALRQRTFIKDDTLLVRCEVSTRFDMGSLRREGFQPRSTDAGV [chain 1 K160A]
The percent of parent of the first is lower: 1% for the first, 90% for the second.

Going from chain 1 DHQIRELTAKMETQSMYVSELKRTIRTLEDKVAEIEAQQCNGIYIWKIGNFGMHLKCQEEEKPVVIHSPGFYTGKPGYKLCMRLHLQLPTAQRCANYISLFVHTMQGEYDSHLPWPFQGTIRLTILDQSEAPVRQNHEEIMDAKPELLAFQRPTIPRNPKGFGAVTFMHLEALRQRTFIKDDTLLVRCEVSTRFDMGSLRREGFQPRSTDAGV [chain 1 Y164A] to chain 1 DHQIRELTAKMETQSMYVSELKRTIRTLEDKVAEIEAQQCNGIYIWKIGNFGMHLKCQEEEKPVVIHSPGFYTGKPGYKLCMALHLQLPTAQRCANYISLFVHTMQGEYDSHLPWPFQGTIRLTILDQSEAPVRQNHEEIMDAKPELLAFQRPTIPRNPKGFGYVTFMHLEALRQRTFIKDDTLLVRCEVSTRFDMGSLRREGFQPRSTDAGV [chain 1 R83A], the percent of parent rises from 1% to 85%.

Variants of: B2
Test: AlphaScreen
Details: with partner chain of the complex shown; 100 nM His-TRAF6; parent: 100; read off a plot

First: chain 2 LIWMYYHGQRHSDEHHHDDSLPHPQQATDDSGHESDSNSNEGRHHLLVSGAGDGPPLCSQNLGAPGGGPDNGPQDPDNTDDNGPQDPDNTDDNGPHDPLPQDPDNTDDNGPQDPDNTDDNGPHDPLPHSPSDSAGNDGGPPQLTEEVENKGGDQGPPLMTDGGGGHSHDSGHGGGDPHLPTLLLGSSGSGGDDDDPHGPVQLSYAD [chain 2 Y205A]
Second: chain 2 LIWMYYHGQRHSDEHHHDDSLPHPQQATDDSGHESDSNSNEGRHHLLVSGAGDGPPLCSQNLGAPGGGPDNGPQDPDNTDDNGPQDPDNTDDNGPHDPLPQDPDNTDDNGPQDPDNTDDNGPHDPLPHSPSDSAGNDGGPPQLTEEVENKGGDQGPPLMTDGGGGHSHDSGHGGGDPHLPTLLLGSSGSGGDDDDPHGAVQLSYYD [chain 2 P199A]
The percent of parent of the first is higher: 47% for the first, 18% for the second.

Going from chain 2 LIWMYYHGQRHSDEHHHDDSLPHAQAAADDSGHESDSNSNEGRHHLLVSGAGDGPPLCSQNLGAPGGGPDNGPQDPDNTDDNGPQDPDNTDDNGPHDPLPQDPDNTDDNGPQDPDNTDDNGPHDPLPHSPSDSAGNDGGPPQLTEEVENKGGDQGPPLMTDGGGGHSHDSGHGGGDPHLPTLLLGSSGSGGDDDDPHGPVQLSYYD [chain 2 P24A Q26A T28A] to chain 2 V200A, the percent of parent falls from 83% to 15%.

Same assay, conditions: with partner chain of the complex shown; 300 nM His-TRAF6; parent: 100; read off a plot

Going from chain 2 LIWMYYHGQRHSDEHHHDDSLPHPQQATDDSGHESDSNSNEGRHHLLVSGAGDGPPLCSQNLGAPGGGPDNGPQDPDNTDDNGPQDPDNTDDNGPHDPLPQDPDNTDDNGPQDPDNTDDNGPHDPLPHSPSDSAGNDGGPPQLTEEVENKGGDQGPPLMTDGGGGHSHDSGHGGGDPHLPTLLLGSSGSGGDDDDPHGPVQLSYAD [chain 2 Y205A] to chain 2 LIWMYYHGQRHSDEHHHDDSLPHPQQATDDSGHESDSNSNEGRHHLLVSGAGDGPPLCSQNLGAPGGGPDNGPQDPDNTDDNGPQDPDNTDDNGPHDPLPQDPDNTDDNGPQDPDNTDDNGPHDPLPHSPSDSAGNDGGPPQLTEEVENKGGDQGPPLMTDGGGGHSHDSGHGGGDPHLPTLLLGSSGSGGDDDDPHGAVQLSYYD [chain 2 P199A], the percent of parent falls from 65% to 19%.

Compared with chain 2 LIWMYYHGQRHSDEHHHDDSLPHAQAAADDSGHESDSNSNEGRHHLLVSGAGDGPPLCSQNLGAPGGGPDNGPQDPDNTDDNGPQDPDNTDDNGPHDPLPQDPDNTDDNGPQDPDNTDDNGPHDPLPHSPSDSAGNDGGPPQLTEEVENKGGDQGPPLMTDGGGGHSHDSGHGGGDPHLPTLLLGSSGSGGDDDDPHGPVQLSYYD [chain 2 P24A Q26A T28A], chain 2 V200A is lower in percent of parent: 98% for the first, 15% for the second.

Same assay, conditions: with partner chain of the complex shown; 1000 nM His-TRAF6; parent: 100; read off a plot

First: chain 2 LIWMYYHGQRHSDEHHHDDSLPHPQQATDDSGHESDSNSNEGRHHLLVSGAGDGPPLCSQNLGAPGGGPDNGPQDPDNTDDNGPQDPDNTDDNGPHDPLPQDPDNTDDNGPQDPDNTDDNGPHDPLPHSPSDSAGNDGGPPQLTEEVENKGGDQGPPLMTDGGGGHSHDSGHGGGDPHLPTLLLGSSGSGGDDDDPHGPVQLSYAD [chain 2 Y205A]
Second: chain 2 LIWMYYHGQRHSDEHHHDDSLPHPQQATDDSGHESDSNSNEGRHHLLVSGAGDGPPLCSQNLGAPGGGPDNGPQDPDNTDDNGPQDPDNTDDNGPHDPLPQDPDNTDDNGPQDPDNTDDNGPHDPLPHSPSDSAGNDGGPPQLTEEVENKGGDQGPPLMTDGGGGHSHDSGHGGGDPHLPTLLLGSSGSGGDDDDPHGAVQLSYYD [chain 2 P199A]
The percent of parent of the first is higher: 84% for the first, 21% for the second.

Compared with chain 2 LIWMYYHGQRHSDEHHHDDSLPHAQAAADDSGHESDSNSNEGRHHLLVSGAGDGPPLCSQNLGAPGGGPDNGPQDPDNTDDNGPQDPDNTDDNGPHDPLPQDPDNTDDNGPQDPDNTDDNGPHDPLPHSPSDSAGNDGGPPQLTEEVENKGGDQGPPLMTDGGGGHSHDSGHGGGDPHLPTLLLGSSGSGGDDDDPHGPVQLSYYD [chain 2 P24A Q26A T28A], chain 2 V200A is lower in percent of parent: 92% for the first, 14% for the second.

Same assay, conditions: with partner chain of the complex shown; parent: 100; read off a plot

First: chain 1 DHQIRELTAKMETQSMYVSELKRTIRTLEDKVAEIEAQQCNGIYIWKIGNFGMHLKCQEEEKPVVIHSPGFYTGKPGYKLCMRLHLQLPTAQRCANYISLFVHTMQGEYDSHLPWPFQGTIRLTILDQSEAPVRQNHEEIMDAKPELLAFQRPTIPRNPAGFGYVTFMHLEALRQRTFIKDDTLLVRCEVSTRFDMGSLRREGFQPRSTDAGV [chain 1 K160A]
Second: chain 1 DHQIRELTAKMETQSMYVSELKRTIRTLEDKVAEIEAQQCNGIYIWKIGNFGMHLKCQEEEKPVVIHSPGFYTGKPGYKLCMALHLQLPTAQRCANYISLFVHTMQGEYDSHLPWPFQGTIRLTILDQSEAPVRQNHEEIMDAKPELLAFQRPTIPRNPKGFGYVTFMHLEALRQRTFIKDDTLLVRCEVSTRFDMGSLRREGFQPRSTDAGV [chain 1 R83A]
The percent of parent of the first is higher: 100% for the first, 4% for the second.

In the case of chain 1 DHQIRELTAKMETQSMYVSELKRTIRTLEDKVAEIEAQQCNGIYIWKIGNFGMHLKCQEEEKPVVIHSPGFYTGKPGYKLCMRLHLQLPTAQRCANYISLFVHTMQGEYDSHLPWPFQGTIRLTILDQSEAPVRQNHEEIMDAKPELLAFQRPTIPRNPKGAGYVTFMHLEALRQRTFIKDDTLLVRCEVSTRFDMGSLRREGFQPRSTDAGV [chain 1 F162A], the percent of parent is reported as 5%.
